Source: patent US20230094162A1 (MacroGenics, published 2023)
Changes are numbered by the printed parent chain.

Assays:
[1] = molecular target: T1, soluble PD-L1 fused to a His tag (shPD-L1) (UniProt Q9NZQ7 19-238, limits assumed); assay: ELISA on plate-coated shPD-L1-his, anti-human kappa-HRP detection, RLU
T1 construct: the species of shPD-L1 is not written out; also called shPD-L1-his; not shown: His tag
Description: ELISA assays to evaluate the test articles for CD137 binding were performed essentially as follows: flat bottom maxisorb 96-well plates were coated with soluble human or cynomolgus monkey CD137 (the extracellular domain of human or cynomolgus monkey CD137 fused to a His tag (shCD137 His or scyCD137 His) or to a human Fc Region (shCD137 hFc or scyCD137 hFc)), each at 0.5 or 1 μg/mL. The plates were washed, blocked with PBS buffer containing 0.5% bovine serum albumin and 0.1% Tween20, and incubated with a test article (e.g., cell supernatants or purified mAb). For the hybridoma supernatants anti-CD137 antibody was utilized at 1.0 μg/mL and six three-fold serial dilutions. The amount of test article binding to the immobilized CD137 (human or cynomolgus monkey) was assessed using a goat anti-mouse IgG-HRP secondary antibody. All samples were analyzed on a plate reader (Victor 2 Wallac, Perkin Elmer) and EC50 values were calculated from dose-response curves by nonlinear regression analysis.
The binding of Fab fragments comprising different combinations of these substitutions to shPD-L1-his was evaluated by ELISA essentially as described above except a goat anti-human kappa-HRP secondary antibody was used.

[2] = molecular target: T2, PD-L1 expressed on the cell surface (CHO/PD-L1 cells) (UniProt Q9NZQ7 19-290); assay: flow cytometry (FACS) on CHO cells expressing PD-L1, MFI
T2 construct: whole, on cells; also called PD-L1 on JIMT-1 cells
Description: FACS analysis to evaluate the test articles for binding to cell surface PD-L1 was performed essentially as follows: 100 μL of CHO cells expressing PD-L1 (CHO/PD-L1) (1.0×10⁵ to 1.0×10⁶ cells/well) and 100 μL of serially diluted test article was added to each well of microtiter assay plate(s), mixed and incubated at RT for about 30 min. The cells were washed with FACS Buffer and secondary antibody (goat anti-human-FITC, PE, or APC) was then added to each well, after which, the components were mixed and the wells were incubated at RT for about 30 min. Cells were washed and resuspended in 250 μL FACS Buffer and analyzed by flow cytometry (BD LSR Fortessa or FACSCanto II) for cell events collection. Data analysis were performed via FloJo v10.
Test articles were used at 10 μg/mL and five-fold serial dilutions for the FACS analysis and at 50 μg/mL and five-fold serial dilutions for the PD-L1 reporter assay.

[3] = molecular target: T3, CD137 expressed on the cell surface (CHO/CD137 cells) (UniProt Q07011 24-255, limits assumed); assay: flow cytometry (FACS) on CHO cells expressing CD137, MFI
T3 construct: whole, on cells; also called cell surface CD137; Jurkat-NF-κB-Luc reporter cells overexpressing CD137
Description: FACS analysis to evaluate the test articles for binding to cell surface CD137 was performed essentially as follows: 100 μL of CHO cells expressing CD137 (CHO/CD137) (1.0×10⁵ to 1×10⁶ cells/well) and 100 μL of serially diluted test article or control was added to each well of microtiter assay plate(s), mixed and incubated at RT for about 30 min. The cells were washed with FACS Buffer and secondary antibody (goat anti-human-APC, PE, or FITC) was then added to each well (1:1000), after which, the components were mixed and the wells were incubated at RT for about 30 min. Cells were washed and resuspended in 250 μL FACS Buffer and analyzed by flow cytometry (BD LSR Fortessa or FACSCanto II) for cell events collection. Data analysis were performed via FloJo v10.

[4] = molecular target: T2, PD-L1 expressed on the cell surface …; assay: cell-based or functional assay
[5] = molecular target: T2, PD-L1 expressed on the cell surface …; assay: cell-based or functional assay; remark: listed apart in the source

T2 sequence (Q9NZQ7 19-290): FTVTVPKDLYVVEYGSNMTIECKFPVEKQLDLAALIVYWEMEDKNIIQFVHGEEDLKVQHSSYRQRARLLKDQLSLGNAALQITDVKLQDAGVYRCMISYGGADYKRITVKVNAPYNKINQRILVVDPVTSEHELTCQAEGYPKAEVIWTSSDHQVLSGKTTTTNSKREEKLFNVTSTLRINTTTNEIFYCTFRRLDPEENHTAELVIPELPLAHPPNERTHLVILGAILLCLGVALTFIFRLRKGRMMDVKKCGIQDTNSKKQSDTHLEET
T1 sequence (Q9NZQ7 19-238 limits assumed): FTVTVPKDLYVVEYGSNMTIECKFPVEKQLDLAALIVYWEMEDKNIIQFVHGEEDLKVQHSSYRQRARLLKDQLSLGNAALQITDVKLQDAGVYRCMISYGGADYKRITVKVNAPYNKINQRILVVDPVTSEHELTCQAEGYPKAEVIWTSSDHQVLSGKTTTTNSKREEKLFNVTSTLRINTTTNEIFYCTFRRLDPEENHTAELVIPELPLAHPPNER
T3 sequence (Q07011 24-255 limits assumed): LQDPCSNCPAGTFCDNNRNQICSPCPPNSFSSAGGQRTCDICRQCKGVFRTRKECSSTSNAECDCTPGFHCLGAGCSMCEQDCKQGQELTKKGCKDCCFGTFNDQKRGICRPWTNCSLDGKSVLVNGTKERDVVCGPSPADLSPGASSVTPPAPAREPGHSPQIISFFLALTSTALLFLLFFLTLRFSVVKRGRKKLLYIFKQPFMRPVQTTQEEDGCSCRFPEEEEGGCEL

B1: hPD-L1 MAB-2A (Fab) (Fab, V domains shown)
VH: EVQLVESGGGLVQPGGSLRLSCAASGFTFSGYTMSWVRQAPGKGLEWVAYISIKGGTTYYPDTVKGRFTISRDNAKNTLYLQMNSLKTEDTAVYYCARAGLPYYFDYWGQGTLVTVSS
VL: DIQMTQSPSSLSASVGDRVTITCKASQHVNTAVAWYQQKPGKAPKLLIYWASTRHTGVPSRFSGSGSGTDFTLTISSLQPEDFATYYCQQHYNTPLTFGQGTKVEIK
notes: Fab fragment
Question: Does B1 bind [1]?
Answer: binds

B2: hPD-L1 MAB-2E (Fab) (Fab, V domains shown)
VH: B1 VH with G31S
VL: B1 VL with H28L
notes: Fab fragment
Question: Does B2 bind [1]?
Answer: binds

B3: hPD-L1 MAB-2C (Fab) (Fab, V domains shown)
VH: B1 VH with A99Q, F105G
VL: B1 VL with H28L
notes: Fab fragment
Question: Does B3 bind [1]?
Answer: binds

B4: hPD-L1 MAB-2D (Fab) (Fab, V domains shown)
VH: B1 VH with G31S, K54G, A99Q, F105G
VL: B1 VL with H28L, S52E
notes: Fab fragment
Question: Does B4 bind [1]?
Answer: binds

B5: hPD-L1 MAB-2B (Fab) (Fab, V domains shown)
VH: B1 VH with A99G
VL: B1 VL with H28V
notes: Fab fragment
Question: Does B5 bind [1]?
Answer: binds

B6: TRIDENT-A (bispecific antibody, human IgG1, kappa, L234A L235A)
chain 1: EIVMTQSPATLSLTPGERATLSCRASQSVSSNYLSWFQQIPGQAPRLLIYGASTRATGIPARFSGSGSGTDFTLTISSLQPEDFAVYYCQQDYDLPWTFGQGTKVEIKGGGSGGGGQVQLQESGPGLVKPSETLSLTCTVSGGSISSYYWSWIRQPPGKGLEWIGRIYTSGSTNYNPSLKSRVTMSVDTSKNQFSLKLSSVTAADTAVYYCARDGWYDEDYNYYGMDVWGQGTTVTVSSGGCGGGEVAALEKEVAALEKEVAALEKEVAALEKGGGDKTHTCPPCPAPEAAGGPSVFLFPPKPKDTLYITREPEVTCVVVDVSHEDPEVKFNWYVDGVEVHNAKTKPREEQYNSTYRVVSVLTVLHQDWLNGKEYKCKVSNKALPAPIEKTISKAKGQPREPQVYTLPPSREEMTKNQVSLWCLVKGFYPSDIAVEWESNGQPENNYKTTPPVLDSDGSFFLYSKLTVDKSRWQQGNVFSCSVMHEALHNHYTQKSLSLSPGK
chain 2: EIVMTQSPATLSLTPGERATLSCRASQSVSSNYLSWFQQIPGQAPRLLIYGASTRATGIPARFSGSGSGTDFTLTISSLQPEDFAVYYCQQDYDLPWTFGQGTKVEIKGGGSGGGGQVQLQESGPGLVKPSETLSLTCTVSGGSISSYYWSWIRQPPGKGLEWIGRIYTSGSTNYNPSLKSRVTMSVDTSKNQFSLKLSSVTAADTAVYYCARDGWYDEDYNYYGMDVWGQGTTVTVSSGGCGGGKVAALKEKVAALKEKVAALKEKVAALKE
heavy: EVQLVESGGGLVQPGGSLRLSCAASGFTFSSYTMSWVRQAPGKGLEWVAYISIGGGTTYYPDTVKGRFTISRDNAKNTLYLQMNSLKTEDTAVYYCARQGLPYYFDYWGQGTLVTVSSASTKGPSVFPLAPSSKSTSGGTAALGCLVKDYFPEPVTVSWNSGALTSGVHTFPAVLQSSGLYSLSSVVTVPSSSLGTQTYICNVNHKPSNTKVDKRVEPKSCDKTHTCPPCPAPEAAGGPSVFLFPPKPKDTLYITREPEVTCVVVDVSHEDPEVKFNWYVDGVEVHNAKTKPREEQYNSTYRVVSVLTVLHQDWLNGKEYKCKVSNKALPAPIEKTISKAKGQPREPQVYTLPPSREEMTKNQVSLSCAVKGFYPSDIAVEWESNGQPENNYKTTPPVLDSDGSFFLVSKLTVDKSRWQQGNVFSCSVMHEALHNRYTQKSLSLSPGK
light: DIQMTQSPSSLSASVGDRVTITCKASQDVNTAVAWYQQKPGKAPKLLIYWASTRHTGVPSRFSGSGSGTDFTLTISSLQPEDFATYYCQQHYNTPLTFGQGTKVEIKRTVAAPSVFIFPPSDEQLKSGTASVVCLLNNFYPREAKVQWKVDNALQSGNSQESVTEQDSKDSTYSLSSTLTLSKADYEKHKVYACEVTHQGLSSPVTKSFNRGEC
notes: Trivalent: two CD137 MAB-6(1.1) sites, one hPD-L1 MAB-2(1.1) Fab-type site
Question: How did the “EC50 (read off the curve)” value [2] turn out when B6 was run?
Answer: ~0.08 µg/mL

Question: What about the “EC50 (read off the curve)” value [3] of the same binder?
Answer: ~0.02 µg/mL

B7: DART-A7 (bispecific antibody)
chain 1: DIQMTQSPSSLSASVGDRVTITCKASQDVNEAVAWYQQKPGKAPKLLIYWASTRHTGVPSRFSGSGSGTDFTLTISSLQPEDFATYYCQQHYNTPLTFGQGTKVEIKGGGSGGGGQVQLQESGPGLVKPSETLSLTCTVSGGSISSYYWSWIRQPPGKGLEWIGRIYTSGSTNYNPSLKSRVTMSVDTSKNQFSLKLSSVTAADTAVYYCARDGWYDEDYNYYGMDVWGQGTTVTVSSGGCGGGEVAACEKEVAALEKEVAALEKEVAALEKLEPKSADKTHTCPPCPAPEAAGGPSVFLFPPKPKDTLYITREPEVTCVVVDVSHEDPEVKFNWYVDGVEVHNAKTKPREEQYNSTYRVVSVLTVLHQDWLNGKEYKCKVSNKALPAPIEKTISKAKGQPREPQVYTLPPSREEMTKNQVSLTCLVKGFYPSDIAVEWESNGQPENNYKTTPPVLDSDGSFFLYSKLTVDKSRWQQGNVFSCSVMHEALHNHYTQKSLSLSPGK
chain 2: EIVMTQSPATLSLTPGERATLSCRASQSVSSNYLSWFQQIPGQAPRLLIYGASTRATGIPARFSGSGSGTDFTLTISSLQPEDFAVYYCQQDYDLPWTFGQGTKVEIKGGGSGGGGEVQLVESGGGLVQPGGSLRLSCAASGFTFSSYTMSWVRQAPGKGLEWVAYISIGGGTTYYPDTVKGRFTISRDNAKNSLYLQMNSLRAEDTAVYYCARAGLPYYFDYWGQGTLVTVSSGGCGGGKVAACKEKVAALKEKVAALKEKVAALKE
notes: Tetravalent; CD137 MAB-6(1.1) and hPD-L1 MAB-2(4.2)
Question: With B7 as the binder, how does the “EC50 (read off the curve)” value [4] read?
Answer: ~0.1 µg/mL

Question: And the “EC50 (read off the curve)” value [3]?
Answer: ~0.05 µg/mL

Question: And the “EC50 (read off the curve)” value [5]?
Answer: ~0.2 µg/mL

B8: DART-A9 (bispecific antibody)
chain 1: B7 chain 1
chain 2: B7 chain 2 with F221G
Question: For B8, which “EC50 (read off the curve)” value [4] is on record?
Answer: ~0.1 µg/mL

B9: DART-A8 (bispecific antibody)
chain 1: B7 chain 1
chain 2: B7 chain 2 with G170K
Question: B9 was tested. Which “EC50 (read off the curve)” value [4] did it give?
Answer: ~0.1 µg/mL

B10: DART-A10 (bispecific antibody)
chain 1: B7 chain 1
chain 2: B7 chain 2 with T14S, I40K
notes: Tetravalent; CD137 MAB-6(1.3) and hPD-L1 MAB-2(4.2)
Question: How did the “EC50 (read off the curve)” value [3] turn out when B10 was run?
Answer: ~0.05 µg/mL

Question: And the “EC50 (read off the curve)” value [5]?
Answer: ~0.2 µg/mL
